Assay results taken from patent US20110065649A1.

How the values were obtained:
[1] = biological target: surface nucleolin on mouse cells (mouse), P09405; experiment: cell-based or functional assay
[2] = biological target: surface nucleolin on human cells (human), P19338; experiment: cell-based or functional assay
Sequence of surface nucleolin on human cells (human), P19338 (P19338 2-710): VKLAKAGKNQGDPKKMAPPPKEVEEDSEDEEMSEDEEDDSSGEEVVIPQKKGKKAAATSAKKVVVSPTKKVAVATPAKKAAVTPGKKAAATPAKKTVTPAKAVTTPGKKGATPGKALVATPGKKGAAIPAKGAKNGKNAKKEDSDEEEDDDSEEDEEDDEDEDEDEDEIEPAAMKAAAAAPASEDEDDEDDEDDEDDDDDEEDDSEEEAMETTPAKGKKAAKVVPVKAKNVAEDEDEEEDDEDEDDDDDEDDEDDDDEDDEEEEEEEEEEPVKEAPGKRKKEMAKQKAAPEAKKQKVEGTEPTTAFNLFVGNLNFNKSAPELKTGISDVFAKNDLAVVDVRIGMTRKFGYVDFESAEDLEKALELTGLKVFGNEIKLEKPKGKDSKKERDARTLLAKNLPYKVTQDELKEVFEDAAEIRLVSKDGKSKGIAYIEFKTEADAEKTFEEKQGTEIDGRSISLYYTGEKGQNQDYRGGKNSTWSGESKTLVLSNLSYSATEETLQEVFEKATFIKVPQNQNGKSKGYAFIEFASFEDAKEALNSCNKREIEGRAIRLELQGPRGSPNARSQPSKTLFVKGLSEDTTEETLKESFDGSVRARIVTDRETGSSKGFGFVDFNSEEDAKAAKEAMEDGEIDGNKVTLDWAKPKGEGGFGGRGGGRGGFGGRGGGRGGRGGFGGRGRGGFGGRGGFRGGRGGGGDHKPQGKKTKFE

Sequence of surface nucleolin on mouse cells (mouse), P09405 (P09405 2-707): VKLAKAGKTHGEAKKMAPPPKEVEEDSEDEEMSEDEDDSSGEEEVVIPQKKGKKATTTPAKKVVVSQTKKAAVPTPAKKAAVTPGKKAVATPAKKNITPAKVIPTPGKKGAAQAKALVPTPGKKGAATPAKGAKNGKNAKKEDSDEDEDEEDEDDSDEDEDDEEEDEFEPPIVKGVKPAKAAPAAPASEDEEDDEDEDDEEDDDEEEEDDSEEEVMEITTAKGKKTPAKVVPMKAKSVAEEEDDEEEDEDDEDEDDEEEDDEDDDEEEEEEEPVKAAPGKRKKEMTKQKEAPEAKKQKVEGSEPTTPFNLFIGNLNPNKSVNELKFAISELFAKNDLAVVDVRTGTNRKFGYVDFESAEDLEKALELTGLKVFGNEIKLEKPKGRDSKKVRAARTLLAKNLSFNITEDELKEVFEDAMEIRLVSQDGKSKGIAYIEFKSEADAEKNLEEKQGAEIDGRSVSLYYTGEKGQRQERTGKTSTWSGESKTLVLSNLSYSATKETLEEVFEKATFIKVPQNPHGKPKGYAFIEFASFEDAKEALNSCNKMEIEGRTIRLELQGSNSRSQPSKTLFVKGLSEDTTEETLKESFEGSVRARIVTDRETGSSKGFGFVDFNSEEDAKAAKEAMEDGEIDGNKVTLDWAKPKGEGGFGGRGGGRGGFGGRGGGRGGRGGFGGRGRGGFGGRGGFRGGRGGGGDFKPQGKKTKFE

B1: hexavalent compound Nucant 7 (peptide)
chain: KAKPGKAKPGKAKPG
peptide: KPR
modifications: not checked
inhibition of TNF-alpha and IL-6 production by murine peritoneal macrophages stimulated by 10, 100 and 1000 ng/ml of LPS, at 10 µM of Nucant 7 [1]: > 95% | ID50 (Inhibitory Dose at 50%) of surface nucleolin activity in HeLa P4 cells [2]: < 100 nM | inhibition of surface nucleolin activity in HeLa P4 cells at 0.8 µM [2]: > 95%
